Reference: patent publication US20190352359A1

Biological target: HLA-A*24
Assay: UV peptide-exchange ELISA (anti-b2m); yield grade ++ = >20%

peptide exchange yield: 20 to 50%
B1: COL10-002 (peptide)
peptide: TQFFIPYTI
modifications: not checked
